This passage reports EC50 results from US20230272086A1 (CHIA TAI TIANQING PHARMACEUTICAL GROUP, published 2023).

In test [1] the target is T1, recombinant protein containing hST2 extracellular domain with mouse antibody heavy chain Fc tag (hST2-ECD-mFc) (human).
T1 construct: Used for SPR and for ELISA of chimeric and humanized antibodies; also called human ST2 antigen
T1 chain: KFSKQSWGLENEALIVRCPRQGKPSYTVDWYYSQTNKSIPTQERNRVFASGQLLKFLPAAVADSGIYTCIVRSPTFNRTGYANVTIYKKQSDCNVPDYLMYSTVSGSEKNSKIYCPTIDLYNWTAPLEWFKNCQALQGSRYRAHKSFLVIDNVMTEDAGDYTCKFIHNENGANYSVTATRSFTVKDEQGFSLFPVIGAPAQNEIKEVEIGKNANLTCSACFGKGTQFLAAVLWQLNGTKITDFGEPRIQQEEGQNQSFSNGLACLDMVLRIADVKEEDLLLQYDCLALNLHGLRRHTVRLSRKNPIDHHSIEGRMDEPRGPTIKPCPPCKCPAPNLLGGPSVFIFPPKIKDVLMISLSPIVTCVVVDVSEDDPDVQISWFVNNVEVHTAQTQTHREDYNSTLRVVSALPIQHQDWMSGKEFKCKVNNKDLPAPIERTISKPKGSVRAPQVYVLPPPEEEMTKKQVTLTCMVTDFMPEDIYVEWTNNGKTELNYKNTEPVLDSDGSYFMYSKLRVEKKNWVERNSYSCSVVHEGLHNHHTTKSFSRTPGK
Description: ELISA, plate coated with hST2-ECD-mFc, antibody heated at 72 °C for 5 min. How it is done:
(§1) The anti-ST2 antibodies were diluted with PBS buffer to a concentration of 1.5 mg/mL. After being treated at 72° C. for 5 min, the samples were assayed by ELISA for their binding activity for an antigen The ELISA procedure is as follows: A 96-well plate was coated with 2 µg/mL hST2-ECD-mFc as the antigen at 100 µL/well and incubated at 4° C. overnight. After the antigen not adsorbed was well washed off, the non-specific binding sites were blocked with a blocking buffer (PBST containing 1% bovine serum albumin). After the plate was washed three times with a washing buffer (PBST, PBS containing 0.05% (v/v) Tween 20), the anti-ST2 antibodies (serially diluted 3-fold from an initial concentration of 1.5 µg/mL to 8 concentrations) were added at 100 µL/well, and the plate was incubated at 37° C. for 1 h. […] After the plate was incubated at room temperature for 5 min, a stop solution (2 N H₂SO₄) was added to stop the reactions. The signals were read at 450 nm using a plate reader (PE, Envision). The data were analyzed using GraphPad Prism5, and the EC₅₀ values were calculated.

The target of test [2] is T1, recombinant protein containing hST2 …. Description: ELISA, plate coated with hST2-ECD-mFc, antibody heated at 72 °C for 5 min; antibody heated at 72° C. for 5 min (Heated column, not the unheated 0.1428 nM). How it is done:
as §1

Changes are numbered by the printed parent chain.

B1: GSK3772847 (antibody STLM208 in CN104411333, prepared in-house) (antibody, human IgG2, kappa, V domains shown)
VH: EVQLLESGGGLVQPGGSLRLSCAASGFTFSIYDMIWVRQAPGKGLEWVSSIRGEGGGTYYADSVKGRFTISRDNSKNTLYLQMNSLRAEDTAVYYCARDPWSTEGSFFVLDYWGQGTLVTVSS
VL: EIVLTQSPATLSLSPGERATLSCRASQSVDDDLAWYQQKPGQAPRLLIYDASNRATGIPARFSGSGSGTDFTLTISSLEPEDFAVYYCQQYITAPLTFGQGTKVEIKR
notes: Control anti-ST2 antibody
For B1, in test [1], the EC50 was determined as 188 pM.

B2: RG6149 (antibody Ab2 in CN104334582, prepared in-house) (antibody, human IgG2, kappa, V domains shown)
VH: EVQLVQSGAEVKKPGESLKISCKGSGYSFTNYWIGWVRQMPGKGLEWMGIIYPGNSDTRFSPSFQGQVTISADKSITTAYLQWSSLKASDTAMYYCARHGTSSDYYGLDVWGQGTTVTVSS
VL: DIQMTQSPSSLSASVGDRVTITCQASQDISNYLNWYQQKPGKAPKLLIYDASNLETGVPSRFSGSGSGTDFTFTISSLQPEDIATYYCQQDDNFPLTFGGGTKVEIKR
notes: Control anti-ST2 antibody
As for B2, the EC50 in test [2] amounted to 1060 pM.

B3: Humanized 31C8-1.1 (antibody, human IgG2, kappa, V domains shown)
VH: EVQLVQSGAEVKKPGATVKISCKASGYIFIDSEMHWVQQAPGKGLEWMGAIDPETGDTVYAEKFQGRVTITADKSSSTAYMELSSLRSEDTAVYYCTGSTTDYYFAYWGQGTLVTVSS
VL: DIQMTQSPSSLSASVGDRVTITCRSSKSLLHSNGIIYLYWYQQKPGKAPKLLIYQLSNLASGVPSRFSSSGSGTDFTLTISSLQPEDFATYYCAQNLELPFTFGQGTKVEIKR
notes: also called hz31C8-1.1; hz31C81-1.1
As for B3, the EC50 in test [1] is 96.8 pM.

B4: Humanized 31C8-1.2 (antibody, human IgG2, kappa, V domains shown)
VH: B3 VH with E1Q, E10K, E62K, Q65K
VL: B3 VL
notes: also called hz31C8-1.2; hz31C81-1.2
For the molecule B4, in test [1], the EC50 stood at 110 pM.

B5: Chimeric 31C8 (antibody, human IgG2, kappa, V domains shown)
VH: QVQLQQSGPELVRPGASVTLSCKASGYIFIDSEMHWVKQTPVHGLEWIGAIDPETGDTVYNQKFKGKATLTADKSSSTASMELSSLTSEDSAVYYCTGSTTDYYFAYWGQGTTLTVSS
VL: DIVMTQAAFSNPVTLGTSASISCRSSKSLLHSNGIIYLYWYLQKPGQSPQLLIYQMSNLASGVPDRFSSSGSGTDFTLRISRVEAEDVGVYYCAQNLELPFTFGSGTKLEIKR
notes: also called xi31C8
As for B5, the EC50 in test [1] amounted to 86.3 pM.
